This passage reports EC50 results from patent CN114106180A (CHINESE PHARMACOLOGY UNIV, dated 2022).

The target of this test is T1, 重组人CD24蛋白 (human, UniProt P25063 27-59, limits assumed).
T1 construct: also called 重组人CD24抗原
T1 chain (looked up): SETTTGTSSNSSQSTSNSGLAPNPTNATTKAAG
The test can be described thus: indirect ELISA, recombinant human CD24 coated at 0.5 ug/mL, antibody 0.08-2.5 nM, goat anti-human IgG detection. On the technique in general: In an ELISA, binding on a coated surface is turned into a signal by an enzyme label.

B1: CD24单克隆抗体cG7 (antibody, human IgG1, V domains shown)
VH: QVKLEESGGGLVQPGGSLKISCAASGFDFSRYWMSWVRQAPGKGLEWIGEINPDSSTINYTPSLRDKFIISRDNAKNTLYLQMSKVRYEDTSLYYCARQGDYWGQGTSVTVSS
VL: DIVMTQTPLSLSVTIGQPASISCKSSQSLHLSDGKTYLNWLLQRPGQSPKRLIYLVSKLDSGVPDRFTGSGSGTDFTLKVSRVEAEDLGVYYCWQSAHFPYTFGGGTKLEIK
notes: also called 亲本CD24单克隆抗体cG7; CD24嵌合抗体
B1: the 50% effective concentration (EC50) (usually the concentration that produces a half-maximal response) amounted to 0.152 nM.

B2: 带有工程化半胱氨酸的CD24单克隆抗体cG7SV (antibody, V domains shown)
VH: B1 VH
VL: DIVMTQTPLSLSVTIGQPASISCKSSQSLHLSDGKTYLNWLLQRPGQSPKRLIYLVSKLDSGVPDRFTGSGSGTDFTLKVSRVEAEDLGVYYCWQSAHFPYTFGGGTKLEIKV
notes: also called 带有工程化半胱氨酸的CD24嵌合抗体
With B2, the EC50 worked out at 0.153 nM.
